The text below walks through data of the nanobody polyreactivity screen of Harvey et al. (2022).

A short description of the series: yeast display, Sf9 membrane polyspecificity reagent, FACS + sequencing; frameworks hold sequencing errors. Put shortly:
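Using colony PCR, genes from sorted yeast display clones were amplified, then sequenced on MiSeq at 2 × 250 and filtered by CDR length. The clones had been stained with 10% biotinylated, detergent-solubilized Sf9 membrane reagent for 1 hour at 4 °C and sorted by FACS into low and high (top ~1%) gates on anti-HA and streptavidin fluorescence. Polyreactivity labels come from the gate of origin.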
Consider “QVQLVESGGGLVQAGGSLRLSCAASGSIFTYYAMGWYRQAPGKERELVAAISWSGGSTYYADSVKGRFTISRDNAKNTVYLQMNSLKPEDTAVYYCAAGRFYKWSRYQEYDYWGQGTQVTVSS”, for which the “polyreactivity (PSR sort gate)” value is “low polyreactivity”.

In the case of “QVQLVESGGGLVQAGGSLRLSCAASGSIFTYYAMGWYRQAPGKERELVAAITWGGSTYADSVKGRFTISRDNAKNTVYLQMNSLKPEDTAVYYCAAQFRSYRYPAYHYDYWGQGTQVTVSS”, the “polyreactivity (PSR sort gate)” value is “low polyreactivity”.

Turning to “QVQLVESGGGLVQAGGSLRLSCAASGSIFTYYAMGWYRQAPGKERELVATITGLGGRTYYADSVKGRFTISRDIAKNTVYLQMNSLKPEDTAVYYCAVVPETRYYYWGHGTQVTVSS”, the “polyreactivity (PSR sort gate)” value is “high polyreactivity”.

Consider “QVQLVESGGGLVQAGGSLRLSCAASGSIFTYYAMGWYRQAPGKERELVDAITWDDDGTYYADSVKGRFTISRDNAKNTVYLQMNSLKPEDTAVYYCAADDGDPYDYWGQGSQVTVSS”, for which the “polyreactivity (PSR sort gate)” value is “low polyreactivity”.

Consider “QVQLVESGGGLVQAGGSLRLSCAASGSIFTYYVMGWYRQAPGKERELVAGITGGGSTNYADSVKGRFTISRDNAKNTVYLQMNSLKPEDTAVYYCNAYEYLSAGYDYWGQGTQVTVSS”, for which the “polyreactivity (PSR sort gate)” value was “low polyreactivity”.

As for “QVQLVESGGGLVQAGGSLRLSCAASGSIFTYYVMGWYRQAPGKERELVAVISRRGGRTYYADSVKGRFTISRDNAKNTVYLQMNSLKPEDTAVYYCATTYKTRYGGRYRYYYWGQGTQVTVSS”, the “polyreactivity (PSR sort gate)” value is on record as “high polyreactivity”.

As to “QVQLVESGGGLVQAGGSLRLSCAASGSIFVAYEMGWYRPAPGKERELVAAIDSVGRTNYADSVKGRFTISRDNAKNTDYLQMNSLKRVDTSVYSCNADQYYSFYDPDDYWGQGTQVTVSS”, the “polyreactivity (PSR sort gate)” value was “low polyreactivity”.

In the case of “QVQLVESGGGLVQAGGSLRLSCAASGSIFVDNAMGWYRQAPGTERELVAAINWSGGSTYYADSVKGRFTISRDNAKNTVYLQMNSLKPEDTAVYYCIAARPGQTWDEQSWYDYWGQGTQVTVSS”, the “polyreactivity (PSR sort gate)” value is given as “low polyreactivity”.

For the sequence “QVQLVESGGGLVQAGGSLRLSCAASGSIFVENAMGWNRQAPGKEREFVAAITRSGGSTYYADSVKGRFTISRDNAKNTVYLQMKILKPEDTAVYYCSARIWDEQPAGGYYWGQGTQVTVSS”, the “polyreactivity (PSR sort gate)” value was “low polyreactivity”.

With “QVQLVESGGGLVQAGGSLRLSCAASGSIFVEYAMGWYRQAPGKERELVAAISYSGSSTNYADSVKGRFTISRDNAKNTVYLQMNSLKPEDTAVYYCNADGTGGEQKPYYELDYWGQGTQVTVSS”, the “polyreactivity (PSR sort gate)” value is given as “low polyreactivity”.

As to “QVQLVESGGGLVQAGGSLRLSCAASGSIFVEYAMGWYRQAPGKERELVASITWSSTSTYYADSVKGRFTISRDNAKNTVYLQMNSLKPEDTAVYYCNTEDYQYAPYEYDYWGQGTQVTVSS”, the “polyreactivity (PSR sort gate)” value is given as “low polyreactivity”.

“QVQLVESGGGLVQAGGSLRLSCAASGSIFVEYAMGWYRQAPGQERELVAAISYSGSSTNYADSVKGRFTISRDNAKNTVYLQINSLKPEDTAVYYSNADGTGGEQKPYYELDYWGQGTQVTVSS”: the “polyreactivity (PSR sort gate)” value is “low polyreactivity”.

As for “QVQLVESGGGLVQAGGSLRLSCAASGSIFVEYVMGWYRQAPGKERELVADISWRDGDTYYADSVKGRFTISRDNAKNTVYLQMNSLKPEDTAVYFCAADVIVPESYGYWPLSYYYWGQGTQVTVSS”, the “polyreactivity (PSR sort gate)” value was “low polyreactivity”.

For “QVQLVESGGGLVQAGGSLRLSCAASGSIFVFNAMGWYRQAPGKERELVAAITSGGRTYYADSVKGRFTISRDNAKNTVYLQMNSLKPEDTAVYYCARRYRARGSMYYWGQGTQVTVSS”, the “polyreactivity (PSR sort gate)” value was “high polyreactivity”.

“QVQLVESGGGLVQAGGSLRLSCAASGSIFVFYAMGWYRQAPGKERELVAAISSVGSTYYADSVKGRFTISRDNAKNTVYLQMNSLKPEDTAVYYCAAVTYYSGYYWGQGTQVTVSS”: the “polyreactivity (PSR sort gate)” value is “low polyreactivity”.

On to “QVQLVESGGGLVQAGGSLRLSCAASGSIFVFYAMGWYRQAPGKERELVAAISYRGGSTYADSVKGRFTISRDNEKNTVYLQMNSLKPEDTAVYYCAARGLVRSYDYWGQGTQVTVSS”, for which the “polyreactivity (PSR sort gate)” value was “high polyreactivity”.

For the sequence “QVQLVESGGGLVQAGGSLRLSCAASGSIFVGYAMGRYRQAPGKERELVAAISSRGGSTYYADSVKGRFTISRDNAKNTVYLQMNSLKPEDTGVYYCAAEYRAWWYEYDYWGQGTQVTVSS”, the “polyreactivity (PSR sort gate)” value is on record as “high polyreactivity”.

“QVQLVESGGGLVQAGGSLRLSCAASGSIFVGYAMGWYRQAPGKERELVAAISRSGGRTYYADSVKGRFTISRDNAKNTVYLQMISLKPEDTAVYYCARQRYEYRTTYYYWGQGTQVTVSS”: the “polyreactivity (PSR sort gate)” value is “high polyreactivity”.

For the sequence “QVQLVESGGGLVQAGGSLRLSCAASGSIFVGYAMGWYRQAPGKERELVAAITGSGTRTYYADSVKGRFTISRDNAKNTVYLQMNSLKPEDTAVYYCAAPLSYKNVKYDYWGQGTQVTVSS”, the “polyreactivity (PSR sort gate)” value was “low polyreactivity”.

For the sequence “QVQLVESGGGLVQAGGSLRLSCAASGSIFVGYAMGWYRQAPGKEREMVAAITGSGTRTYYADSVKGRFTISRDNAKNTVYLQMNSLKPEDTAVYYCAAPLSYKNVKYDYWGQGTQVTVSS”, the “polyreactivity (PSR sort gate)” value is “low polyreactivity”.

On to “QVQLVESGGGLVQAGGSLRLSCAASGSIFVHNDMGWYRQAPGKERELVATIDSAGGTYYADSVKGRFTISRDNAKNTVYLQMNSLKPEDTAVYYCAAYGPYVLSIYDYWGQGTQVTVSS”, for which the “polyreactivity (PSR sort gate)” value is reported as “low polyreactivity”.

Regarding “QVQLVESGGGLVQAGGSLRLSCAASGSIFVHYAMGGYRQAPGKERELVAAISQRGGSTSYADSVKGRFTISRDNAKNTVYLQMNSLKPEDTAVYYCAAENWIGDYYWGQGTQVTVSS”, the “polyreactivity (PSR sort gate)” value is recorded as “low polyreactivity”.

“QVQLVESGGGLVQAGGSLRLSCAASGSIFVHYAMGWYRQAPGKERELVARISWRGNTYYADSVKGRFTISRDNAKNTVYLQMNSLKPEDTAVYYCAKDVRRSLVIWDVVYPHGYWGQGTQVTVSS”: the “polyreactivity (PSR sort gate)” value is “low polyreactivity”.

“QVQLVESGGGLVQAGGSLRLSCAASGSIFVIYAMGWYRQAPGKERELVAAITSGGNTTYADSVKGRFTISRDNAKNTVYLQMNSLKPEDTAVYYCAAYSYYTGDQYSYDYWGQGTQVTVSS”: the “polyreactivity (PSR sort gate)” value was “low polyreactivity”.

Turning to “QVQLVESGGGLVQAGGSLRLSCAASGSIFVKYAMGWYRQAPGKERELVAAISGSGGSTYYADSVKGRFTISRDNAKNTVYLQMNSLKPEDTAVYYCAAAYHGRHYYWGQGTQVTVSS”, the “polyreactivity (PSR sort gate)” value is “high polyreactivity”.

With “QVQLVESGGGLVQAGGSLRLSCAASGSIFVLNAMGWYRQAPGKERELVAVISNIGGRTYYADSVKGRFTISRDNAKNTVYLQMNSLKPEDTAVYYCIFRSPSYEYDYWGQGTQVTVSS”, the “polyreactivity (PSR sort gate)” value is “low polyreactivity”.

As to “QVQLVESGGGLVQAGGSLRLSCAASGSIFVLNAMGWYRQAPGKEWELVAVISNIGGRTYYADSVKGRFTISRDNAKNTVYLQLNSLKPEDTAVYSCAAPFTSTFDYWGQVTQVTVSS”, the “polyreactivity (PSR sort gate)” value is given as “low polyreactivity”.

On to “QVQLVESGGGLVQAGGSLRLSCAASGSIFVLNAMGWYRQAPGQERELVAAITNVGSTYYADSVKGRFTISRDNAKNTVYLQMNSLKPEDTAVYYCAAVLPFKYDYWGQGTQVTVSS”, for which the “polyreactivity (PSR sort gate)” value is listed as “low polyreactivity”.

For “QVQLVESGGGLVQAGGSLRLSCAASGSIFVLSAMGWYRQAPGKEREFFAAITWSGDSTYYADSVKGRFTISRDNAKNTVYLQMNSLKPEDTAVYYCAAEGNTWPADFLSYYFEFDEYWGQGTQVTVSS”, the “polyreactivity (PSR sort gate)” value is reported as “low polyreactivity”.

For “QVQLVESGGGLVQAGGSLRLSCAASGSIFVLYAMGWYRQAPGKERELVAAITSAGSTYYADSVKGRFTISRDNAKNTVYLQMNSLKPEDTAVYYCAARRGASQRRYNYWGQGTQVTVSS”, the “polyreactivity (PSR sort gate)” value is given as “high polyreactivity”.

For “QVQLVESGGGLVQAGGSLRLSCAASGSIFVNNALGWYRQAPGKERELVAAISSRSSRTFYADSVKGRFTISRDNAKNTVYLQMNSLKPEDTAVYYCAVKKRAPDGDYWGQGTQVTVSS”, the “polyreactivity (PSR sort gate)” value is on record as “high polyreactivity”.

Turning to “QVQLVESGGGLVQAGGSLRLSCAASGSIFVNNAMGWYRQAPGKERELVAAIRRGSSTNYADSVKGRFTISRDNAKNTVYLQMNSLKPEDTAVYDCAADHDDDEAQNYDYLGQGTQVTVSS”, the “polyreactivity (PSR sort gate)” value is “low polyreactivity”.

Take “QVQLVESGGGLVQAGGSLRLSCAASGSIFVNNAMGWYRQAPGKERELVAAISSRGGSTYYADSVKGRFTISRDNAKNTVYLQMNSLKPEDTAVYYCAAEYDGPYYSFYPEQRYYWGLGTQVTVSS”: the “polyreactivity (PSR sort gate)” value is on record as “low polyreactivity”.

Turning to “QVQLVESGGGLVQAGGSLRLSCAASGSIFVNYAIGWYRQAPGKERELVAAISRSGGRTYYADSVKGRFTISRDNAMNSVYLQMNSLKPEDTAVYYCNVYPVLRTIEGDYWGQGTQVTVSS”, the “polyreactivity (PSR sort gate)” value is “high polyreactivity”.

In the case of “QVQLVESGGGLVQAGGSLRLSCAASGSIFVPNAMGWYRQAPGKERELVAAITSGGSTYYADSVKGRFTISRDNAKNTVYLQMNSLKPEDTAVYYCAAEYWLGLYTYDYWGQGTQVTVSS”, the “polyreactivity (PSR sort gate)” value is given as “high polyreactivity”.

Take “QVQLVESGGGLVQAGGSLRLSCAASGSIFVPYAMGWYRQAPGKERELVAAISYRGGNTYYADSVKGRFTISRDKAKNTVSLQMNSLKPEDTAVYYCNAGVSIGRSRRDDYWGQGTQVTVSS”: the “polyreactivity (PSR sort gate)” value was “low polyreactivity”.

Turning to “QVQLVESGGGLVQAGGSLRLSCAASGSIFVQNAMGWYRQAPGKERELVAAINSGGSTYYADSVKGRFTISRDNANNTVYLQMNSLKPEDTAVYYCAADHNYYAYSYYYWGQGTQVTVSS”, the “polyreactivity (PSR sort gate)” value is recorded as “low polyreactivity”.

“QVQLVESGGGLVQAGGSLRLSCAASGSIFVRNAMGWYRQAPGKERELVAAITSDVNTYYADSVKGRFTISRDNGKNTVYLQMNSLKPEDTAVYYCAKGVTSQPNDPAPFPRYEYWGQGTQVTVSS”: the “polyreactivity (PSR sort gate)” value was “low polyreactivity”.

In the case of “QVQLVESGGGLVQAGGSLRLSCAASGSIFVRNTMGWYRQAPGKERELVASIDWSGGITYYADSVKGRFTISRDNAKNTVYLQMNSLKPEDTAVYYCNAVFLYPFNVPTMEYWGQGTQVTVSS”, the “polyreactivity (PSR sort gate)” value is on record as “low polyreactivity”.

“QVQLVESGGGLVQAGGSLRLSCAASGSIFVRNTMGWYRQAPGKERELVATISSGGRTNYADSVKGRFTISRDNAKNTVYLQMNSLKPEDTAVYYCNRPRWYGGSPYYYWGQGTQVTVSS”: the “polyreactivity (PSR sort gate)” value is listed as “high polyreactivity”.

On to “QVQLVESGGGLVQAGGSLRLSCAASGSIFVRNTMGWYRQAPGKERELVATISSGGRTYYADSVKGRFTISRDNAKNTVYLQMNSLKPEDTAVYYCAAGYSYAQYSYPFLSFAFGYWGQGTQVTVSS”, for which the “polyreactivity (PSR sort gate)” value is on record as “high polyreactivity”.
